In patent US6972319B1, “Pituitary adenylate cyclase activating peptide (PACAP)receptor 3 (R3) agonists and their pharmacological methods of use” (priority 1999, dated 2005):
No end group written: not given here.

Target: T1, PACAP-R3 (human, UniProt P41587 24-438)
T1 sequence (looked up): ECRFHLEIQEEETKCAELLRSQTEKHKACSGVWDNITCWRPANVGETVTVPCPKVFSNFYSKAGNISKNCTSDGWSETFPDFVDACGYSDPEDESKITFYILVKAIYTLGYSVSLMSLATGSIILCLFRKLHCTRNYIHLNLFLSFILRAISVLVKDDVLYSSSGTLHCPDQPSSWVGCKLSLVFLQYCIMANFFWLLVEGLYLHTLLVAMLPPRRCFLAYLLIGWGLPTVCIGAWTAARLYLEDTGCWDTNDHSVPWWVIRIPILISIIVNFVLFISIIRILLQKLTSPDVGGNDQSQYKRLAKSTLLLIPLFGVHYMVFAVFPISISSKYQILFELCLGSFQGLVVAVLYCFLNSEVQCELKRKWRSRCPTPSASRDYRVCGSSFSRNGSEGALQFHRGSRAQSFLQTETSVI
Assay: cell-based or functional assay
Conditions: not given

Row | Molecule | R3 EC50, nM (cAMP SPA) | R3 Selectivity
1 | HSDAVFTDNYTRLRKQMASKKYLNSIRNRI [rR3P193] | 1.9 nM | 110 ratio
2 | HSDGIFTDSYSRYEKQMAVKKYLAAVL-NH2 [PAC14] | 1.6 nM | 70 ratio
3 | HSDGIFTDSYSRYRKQKAVKKYLAAVL-NH2 [PAC17] | 0.15 nM | 1.6 ratio
4 | HSDAVFTDNYTRLRKQMASKKYLNSIPNRI [rR3P183] | 5.4 nM | > 30 ratio
5 | HSDGIFTDSYSRYREQMAVKKYLAAVL-NH2 [PAC15] | 0.2 nM | 12 ratio
6 | HSDGIFTDSYSRYRKQMAVKEYLAAVL-NH2 [PAC21] | 0.24 nM | 10 ratio
7 | HSDAVFTDNYTRLRKQMARKKYLNSIKNRI [rR3P177] | 1.6 nM | 70 ratio
8 | HSDAVFTDNYTRLRKQMASKKYLNSIKNRI [rR3P178] | 0.75 nM | 110 ratio
9 | HSDAVFTDNYTRLRKQMAAKKYLNSIKNRI [rR3P174] | 0.2 nM | 90 ratio
10 | HSDAVFTDNYTRLRKQMAAKKYLNSIRNRI [rR3P189] | 0.04 nM | 30 ratio
11 | HSDAVFTDNYTRLRKQMAGKKYLNSIRNRI [rR3P190] | 2.2 nM | 100 ratio
12 | HSDAVFTDNYTRLRKQMARKKYLNSIQNRI [rR3P187] | 1.6 nM | > 80 ratio
13 | HSDGIFTDSYSEYRKQMAVKKYLAAVL-NH2 [PAC12] | 3 nM | 50 ratio
14 | HSDGIFTDSYSRYRKQMAVKKYLKAVL-NH2 [PAC24] | 0.2 nM | 1.5 ratio
15 | HSDAVFTDNYTRLRKQMAKKKYLNSIRNRI [rR3P191] | 2.7 nM | > 80 ratio
16 | HSDAVFTDNYTRLRKQMAKKKYLNSIPNRI [rR3P181] | 5.1 nM | 50 ratio
17 | HSDGIFTDSYSRYRKKMAVKKYLAAVL-NH2 [PAC16] | 0.2 nM | 1 ratio
18 | HSDAVFTDNYTRLRKQMARKKYLNSIRNRI [rR3P192] | 0.6 nM | 60 ratio

Row | Molecule | R3 EC50, nM (cAMP SPA) | R3 Selectivity
19 | HSDGIFTDSYSRYRKQMAKKKYLAAVL-NH2 [PAC19] | 0.4 nM | 20 ratio
20 | HSDGIFTDSYSRYRKQMAVKKYKAAVL-NH2 [PAC23] | 13 nM | 13 ratio
21 | HSDGIFTDSYSRYRKQMAVKKKLAAVL-NH2 [PAC22] | 15 nM | 0.1 ratio
22 | HSDAVFTDNYTRLRKQMASKKYLNSIQNRI [rR3P188] | 2.2 nM | 70 ratio
23 | HSDAVFTDNYTRLRKQMAGKKYLNSIPNRI [rR3P180] | 6.7 nM | > 20 ratio
24 | HSDGIFTDSYSRKRKQMAVKKYLAAVL-NH2 [PAC13] | 0.5 nM | 6 ratio
25 | HSDAVFTDNYTRLRKQMAGKKYLNSIQNRI [rR3P185] | 4.5 nM | 40 ratio
26 | HSDGIFTDSYSRYRKQMAVKKYLAAVK-NH2 [PAC27] | 1.1 nM | 1.4 ratio
27 | HSDAVFTDNYTRLRKQMAKKKYLNSIKNRI [rR3P176] | 2 nM | 150 ratio
28 | HSDAVFTDNYTRLRKQMAKKKYLNSIQNRI [rR3P186] | 1.6 nM | 44 ratio
29 | HSDGIFTDSYSRYRKQMAVEKYLAAVL-NH2 [PAC20] | 0.7 nM | 30 ratio
30 | HSDGIFTDSYSRYRKQMAVKKYLAAKL-NH2 [PAC26] | 0.3 nM | 1 ratio
31 | HSDAVFTDNYTRLRKQMAAKKYLNSIQNRI [rR3P184] | 0.37 nM | 30 ratio
32 | HSDAVFTDNYTRLRKQMARKKYLNSIPNRI [rR3P182] | 3.2 nM | 90 ratio
33 | HSDAVFTDNYTRLRKQMAAKKYLNSIPNRI [rR3P179] | 1.5 nM | 150 ratio
34 | HSDGIFTDSYSRYRKQMAVKKYLAKVL-NH2 [PAC25] | 0.04 nM | 3 ratio
35 | HSDAVFTDNYTRLRKQMAGKKYLNSIKNRI [rR3P175] | 2.2 nM | 180 ratio

Test system: not listed separately
Assay: Intraperitoneal glucose tolerance test (IPGTT), plasma glucose in rats
Type: in vivo, Wistar rats
Conditions: 1 nmole/kg s.c., rats, FIG. 7
Description: Wistar rats are fasted overnight and then anesthetized with pentobarbital. The rats were eye-bled (zero time) and the peptide (in 1% human albumin) was injected into the tail vein. Five minutes later, 1 g/kg of glucose (in saline) was injected intraperitoneally, and the rats were eye-bled after 15, 30 and 60 minutes. Plasma glucose levels were determined using the Technicon Axon autoanalyzer, Bayer Diagnosics division of Bayer Corporation, Tarrytown N.Y., operated using Method No. SM4-2143F90“Glucose”.
Wistar rats were fasted overnight and then anesthetized with Pentobarbital. The rats were eye-bled (zero time) and the peptide (in 1% human albumin) was injected subcutaneously. Five minutes later, 1 g/kg of glucose (in saline) was injected intraperitoneally, and the rats were eye-bled after 30 minutes.
Plasma glucose: Data are expressed as % of vehicle of plasma glucose area under the curve after IPGTT (1 g/kg glucose) after treatment with 1 nmol/kg dose of the peptide. […] The present inventors have shown for the first time that this is because the effects of R2 and R3 on glucose tend to cancel each other out. […] Therefore, R3-selectivity appears to be a desirable attribute for medicaments which are to be employed in achieving blood glucose reduction, for treatment of type 2 diabetes.

Row | Molecule | elevation of plasma glucose 30 minutes after IPGTT
36 | HAEGTFTSDV SSYLEGQAAK EFIAWLVKGR-NH2 (HAEGTFTSDVSSYLEGQAAKEFIAWLVKGR-NH2) [GLP-1, incretin hormone released from the intestinal L-cell, a known insulin secretagogue, reference compound] | enhance glucose disposal
